This note sets out measurements from publication PMC8669397, “Cryo-EM structure of MukBEF reveals DNA loop entrapment at chromosomal unloading sites” (Molecular Cell, 2021).

B1: P. thracensis MukE (natural protein, Photorhabdus thracensis)
chain: MSSTHIEQFMPVKLAQALANSLFPELDSQLRAGRHIGIDDLDNHAFLMDFQEQLEEFYARYNVELIRAPEGFFYLRPRSTTLIPRSVLSELDMMVGKILCYLYLSPERLANQGIFTSQELYEELISLADEGKLMKFVNQRSSGSDLDKQKLQEKVRTTLNRLRRLGMVYFLPNNNNKFTITEAVFRFGADVRSGDDPREIQLRMIRDGEAMPVEGSLSLDDSENDETPDNSAEGAGDEQP
notes: MukE, KITE subunit of MukBEF, Photorhabdus thracensis; also called KITE protein MukE; source: E. coli BL21-Gold(DE3), co-expressed with MukB and MukF (pFB403) or with MukF (pFB486); co-purified with MukB

Assay in all cases: cryo-EM structure; MukB^EQ2E4F2–AcpP2 and MukB^EQ2–AcpP2 at 10 μM each, 80-bp matS DNA and MatP2; buffer H30 with 1 mM ATP, 2 mM MgCl2, 0.05% β-octyl glucoside; MatP/DNA/ATP-bound and apo particles from the same sample
Data set [1] deals with the molecule itself.
Data set [2] has as its target T1, P. thracensis MukB(E1407Q) (Photorhabdus thracensis, UniProt A0A0F7LRY2 1-1482, E1407Q).
T1 construct: MukB, SMC subunit of MukBEF, Photorhabdus thracensis, with E1407Q (slows ATP hydrolysis); Two copies in each MukBEF monomer (kappa-MukB and nu-MukB); also called MukB^EQ; kappa-MukB; source: E. coli BL21-Gold(DE3), pFB485, produced at 22°C; purified alone or with MukEF after mixing of cell pellets (Ni-NTA, hSENP1 elution, Q, Superose 6); not shown: His6-SUMO, N-terminal, cleaved
Conditions: both partners purified.

For the data set “P. thracensis MukE”, the target named is B1. Conditions: both partners purified.

As to B1, in data set [1], the binding result is “binds”.

B2: P. thracensis MatP (natural protein, Photorhabdus thracensis)
chain: MKYQQLENLECGWKWAYLIRKHQEGEPITKYIENSAAHAAVDKLIKLESEPVRVLEWIEQHMNPDLFNRMKQTIRARRKRHFNAEHQHTRKKSIDLDFPVWHRLSALSQRRGNTLSETIVQLIEDAERKEKYANQMSSLKHDLEAILGKNE
notes: cloned without tag; the C-terminal tetramerization tail is not visible; also called MatP2; source: E. coli BL21-Gold(DE3), pFB469, purified (HisTrap, Q flowthrough, SP)
Turning to B2, the binding result (in data set [2]; in data set [1]; with P. thracensis MukE) was “binds” throughout.
